In a protein production outcome set (Wang et al. 2014):

experiment: label from the status in PepcDB records

Row | Sequence | protein production
1 | MTTTPTTPATPTTPNAPTPDVTITVIVYNDAERLPRAVASLLRQTHPAIEIIISDDHSTDATPSVARELEASDPRIRYLRLPENSGGCSAPRNRALEIARAPYLMFLDSDDELPENAVALLLAAHREREVDFAMGAVERIRVDTGHRSTWMAHLVDERRTVDGIEAEPGLLFEHLATSKMYTRDFLDRHALRFPEGIHYEDQLFSAQAYCLAKSFTVIPQPVYRWYIAPYVAQDAASISNQRHKLSNVSDRIHVQTLIDDFLAESGHESLRQDKDYKFLKHDFRMYAGDLPYRDEDWLTGFARIVTPYLETLSPGAYALLPRAERVVLQLVRDGRLSEAQLAARGLGHSVAPRETTADDSGCLYWGPRLPSSDWARRELDVTELGLDSRPFPSAQFRHEITSVTPGRGMTVDLTIRTYDPGLRLPVGPQRASVVVAPGRRRLMVPFRLDPVRPGVFEGRVRVDLAAAPLPVQGFDGVRHPLLRLEQQGLANTGVLLAPLTFPTLRATRPGSLRHEVTVEPEGKAAGRLQIRWRPVGVTARVAGPVARKVAGPRVRRAARLVRSALR | failed
2 | MTTVDSPRDANGPPRFAASGFATPRRPDDTDDTGDADETAATVPHRTRALTTPPRRKTIAAPCIDARTRRDRPARRATHARRALADFRAPAPPVARGTTRNRARRYACPSVDAVARTAPSPHAHRAAPARRPPSSEGAIMSEAVRMERDTFGEIAVPAARLWGAQTQRSLQNFKISTEKQSPELIHALALIKRAAAAVNLELGVLAQDKANAIVAAADEIIAGRHADEFPLAVWQTGSGTQTNMNLNEVIANRASELLGGERGESRAVHPNDDVNRGQSSNDVFPTAMHIAAARAIVDHLLPALRTLRATLDAKAAAFADIVKIGRTHLQDATPLTLGQEFSGYVAQLDQGIRHVEAALPHLYELAQGGTAVGTGLNAHPKFAAGVAAEIGRLTGLPFVSAPNKFEVMAAADALVFAHGALKTVAASLMKIANDIRWLASGPRCGLGELSIPENEPGSSIMPGKVNPTQSEAVTMLCCQVFGNDVAVNFGGASGNFELNVFRPMIAHNVLQSVRLLADGAQGFNDHCAVGIEPNRARIDALLNESLMLVTALNPHIGYDKAAQIAKKAHKEGTTLKAAALALGYVTDAQFDEWVRPEHMVGNR | not failed
3 | MTTVSPDDSSPSTLTSLTFDDLTPGQSASLSRTLTQADLDLFATVSGNIDPSHFADPPAGTTLFPKAIGHGMWSASLISGVLGTRLPGPGTVYLAQDLRFRAPVTLGDTITASVTVREKRTERKTVVFECLCTNQNGVTVVSGTAEVIAPATHASVAAQALPGLQMIRHDRQAALLARCAGLPALPTAVIHPCDGPALQGAVEAAQRGLIEPILVGPSLLIAATAKALGLDISAFRLVEAANGAAAAATGVALVRAGEARAVMKGALHTDELMAAVVKRDGGLRTAGRISHVFLMTVPTYPKPLLITDAVVNIAPSLEDKVHIVQNAIDLARILGVETPKVAILSAVETINPKISSTVDAAALCKMAQRGQIRGGLLDGPLAFDNAISAEAAKTKGIVSEVAGQADILLVPDLESGNMLAKQLSFLAHADAAGIVLGTSAPVMLTSRADNLAARLASCALAVLIDAASRPRSTVLAAE | failed
4 | MTTYTSIANVIKERRSVRTFTDKAVEKDLLIELLNDATWAPNHKHREPWNCKLYIGEGRKKLVDAVLNSFTEEERAKRGKILSDRFLSTPAQIVVYMNEDPRQIQRDEDYAATCAFMQNFQLLAWERGLGCVWKSGGLNYNPLFIEGIGLTRGQRIVGILHIGYFDKAPEGKARTPITEKMEIIEG | not failed
